From patent US20240270821A1, “GIP/GLP1/GCG TRI-RECEPTOR AGONISTS AND USES THEREOF” (priority 2023, published 2024)
Starred links: 1 amine or outer side, 2 acyl side, 3 side chain; linkers in the order of their positions; H or OH if unused. Non-standard residues stand in square brackets, D forms with d. Groups on a side chain read outwards from the residue. No end group written: not given here. *: point of attachment. C20 diacid = O=C(O)CCCCCCCCCCCCCCCCCCC(=O)*; γGlu = O=C(O)[C@H](CCC(=O)[*:2])N[*:1]; αMeL = CC(C)C[C@](C)(N)C(=O)O; AEEA = NCCOCCOCC(=O)O; Aib = CC(C)(N)C(=O)O

T1: human GIP receptor (human) (UniProt P48546)
T1 sequence (looked up): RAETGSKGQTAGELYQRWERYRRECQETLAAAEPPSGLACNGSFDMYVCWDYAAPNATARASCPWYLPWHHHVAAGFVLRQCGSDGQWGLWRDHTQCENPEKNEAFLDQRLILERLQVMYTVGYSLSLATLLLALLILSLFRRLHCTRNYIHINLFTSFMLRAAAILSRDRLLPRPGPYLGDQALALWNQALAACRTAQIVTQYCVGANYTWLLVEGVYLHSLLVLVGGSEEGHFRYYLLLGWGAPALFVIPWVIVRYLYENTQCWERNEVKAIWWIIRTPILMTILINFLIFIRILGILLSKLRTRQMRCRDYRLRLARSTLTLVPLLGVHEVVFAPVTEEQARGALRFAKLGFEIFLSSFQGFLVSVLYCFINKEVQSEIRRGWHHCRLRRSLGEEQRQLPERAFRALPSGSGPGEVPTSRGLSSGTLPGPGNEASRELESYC


Legend:
Assay in all cases: cell-based or functional assay
hGLP-1R = hGLP-1R (Homo sapiens, UniProt P43220)
[1] = molecular target: T1, human GIP receptor (human)
[2] = molecular target: human GLP1-R (SNAP-GLP-1R expressed in HEK293 cells) (human) (UniProt P43220)
[3] = molecular target: human glucagon receptor (human) (UniProt P47871)
human glucagon receptor (human), sequence (P47871 26-477): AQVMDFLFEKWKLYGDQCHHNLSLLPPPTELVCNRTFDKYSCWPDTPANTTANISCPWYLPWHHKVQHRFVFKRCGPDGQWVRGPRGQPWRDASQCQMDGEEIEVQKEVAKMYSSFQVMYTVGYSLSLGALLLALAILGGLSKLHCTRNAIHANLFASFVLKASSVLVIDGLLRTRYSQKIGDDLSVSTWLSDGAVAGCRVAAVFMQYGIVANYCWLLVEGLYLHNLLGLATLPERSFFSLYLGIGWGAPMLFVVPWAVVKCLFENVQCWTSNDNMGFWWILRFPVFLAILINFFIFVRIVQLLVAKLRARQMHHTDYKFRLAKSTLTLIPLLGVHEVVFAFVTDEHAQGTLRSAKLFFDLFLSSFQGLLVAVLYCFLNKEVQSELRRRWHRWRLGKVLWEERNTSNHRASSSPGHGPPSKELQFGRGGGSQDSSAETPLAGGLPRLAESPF

human GLP1-R (SNAP-GLP-1R expressed in HEK293 cells) (human), sequence (P43220 24-463): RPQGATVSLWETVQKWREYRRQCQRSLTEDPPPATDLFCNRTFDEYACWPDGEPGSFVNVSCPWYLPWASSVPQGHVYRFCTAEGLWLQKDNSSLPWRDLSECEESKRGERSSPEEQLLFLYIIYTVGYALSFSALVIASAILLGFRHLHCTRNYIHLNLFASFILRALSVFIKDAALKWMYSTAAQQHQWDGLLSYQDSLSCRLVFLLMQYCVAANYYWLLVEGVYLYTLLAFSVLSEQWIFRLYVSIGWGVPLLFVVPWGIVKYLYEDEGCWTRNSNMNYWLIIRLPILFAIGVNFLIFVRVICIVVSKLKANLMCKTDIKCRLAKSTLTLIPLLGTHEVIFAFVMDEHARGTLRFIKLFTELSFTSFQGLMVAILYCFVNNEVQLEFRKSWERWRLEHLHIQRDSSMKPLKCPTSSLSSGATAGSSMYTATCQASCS
hGLP-1R, sequence (P43220 24-463): as above

Binder | Relative cAMP EC50 (hGLP-1R) [nM] | cAMP Rel EC50, nM (in the presence of 1% HSA) (hGLP-1R) [nM] | Relative cAMP EC50 [1] [nM] | cAMP Rel EC50, nM (in the presence of 1% HSA) [1] [nM] | GLP1R Internalization EC50 [2] [nM] | Internalization % TOP [2] [%] | Relative cAMP EC50 [3] [nM] | cAMP Rel EC50, nM (in the presence of 1% HSA) [3] [nM] | cAMP Rel EC50 (in the presence of 1% HSA) (hGLP-1R) [nM] | cAMP Rel EC50 (in the presence of 1% HSA) [1] [nM] | cAMP Rel EC50 (in the presence of 1% HSA) [3] [nM]
YXQGTFTSDFSXXLDKKAQXAFIEYLLAGGPSSGEPPPSGS (synthetic construct; SITE 2: note = 2-Aminoisobutyric Acid; SITE 12: note = L-ornithine; SITE 13: note = alpha-methyl-leucine; SITE 17: note = Lysine is chemically modified through conjugation of the epsilon-amino group of the Lysine side chain with (2-[2-(2-Amino-ethoxy)-ethoxy]-acetyl)-(gamma-Glu)) [Example 94] | 2.63 | 480 | 0.154 | 21.4 | 37.1 | 47.2 | 8.16 | 1220 | – | – | –
YXQGTFTSDFSXXLDKKAQXAFIEYLLAGGPSSGEPPPSGE (synthetic construct; SITE 2: note = 2-Aminoisobutyric Acid; SITE 12: note = L-ornithine; SITE 13: note = alpha-methyl-leucine; SITE 17: note = Lysine is chemically modified through conjugation of the epsilon-amino group of the Lysine side chain with (2-[2-(2-Amino-ethoxy)-ethoxy]-acetyl)-(gamma-Glu)) [Example 97] | 3.23 | 605 | 0.176 | 23.9 | 51.9 | 50.7 | 6.73 | 1270 | – | – | –
YXQGTFTSDFSXXLDKKAQXAFIEYLLAGGPSSGEPPPEGE (synthetic construct; SITE 2: note = 2-Aminoisobutyric Acid; SITE 12: note = L-ornithine; SITE 13: note = alpha-methyl-leucine; SITE 17: note = Lysine is chemically modified through conjugation of the epsilon-amino group of the Lysine side chain with (2-[2-(2-Amino-ethoxy)-ethoxy]-acetyl)-(gamma-Glu)) [Example 98] | 4.35 | 660 | 0.179 | 33.8 | 56 | 49.3 | 6.91 | 867 | – | – | –
YXQGTFTSDFSXXLDKKAQXAFIEYLLAGGPSSGAPPPEGE (synthetic construct; SITE 2: note = 2-Aminoisobutyric Acid; SITE 12: note = L-ornithine; SITE 13: note = alpha-methyl-leucine; SITE 17: note = Lysine is chemically modified through conjugation of the epsilon-amino group of the Lysine side chain with (2-[2-(2-Amino-ethoxy)-ethoxy]-acetyl)-(gamma-Glu)) [Example 99] | 3.54 | 588 | 0.174 | 29.5 | 56.9 | 46.1 | 6.09 | 1130 | – | – | –
YXQGTFTSDFSKXLDKKAQXAFIEYLLAGGPSSGEPPPSSG (synthetic construct; SITE 2: note = 2-Aminoisobutyric Acid; SITE 13: note = alpha-methyl-leucine; SITE 17: note = Lysine is chemically modified through conjugation of the epsilon-amino group of the Lysine side chain with (2-[2-(2-Amino-ethoxy)-ethoxy]-acetyl)-(gamma-Glu)-CO-(CH2) 18-CO2H; SITE 20: n) [Example 7] | 2.11 | – | 0.203 | – | 52.6 | 76.3 | 5.05 | – | 494 | 50.6 | 1210
YXQGTFTSDFSKXLDKKAQXAFIEYLLAGGPSSGEPPPSGS (synthetic construct; SITE 2: note = 2-Aminoisobutyric Acid; SITE 13: note = alpha-methyl-leucine; SITE 17: note = Lysine is chemically modified through conjugation of the epsilon-amino group of the Lysine side chain with (2-[2-(2-Amino-ethoxy)-ethoxy]-acetyl)-(gamma-Glu)-CO-(CH2) 18-CO2H; SITE 20: n) [Example 8] | 2.11 | – | 0.231 | – | 63.2 | 74 | 6.65 | – | 603 | 39.4 | 1560
YXQGTFTSDFSKXLDKKAQXAFIEYLLAGGPSSGAPPPSEG (synthetic construct; SITE 2: note = 2-Aminoisobutyric Acid; SITE 13: note = alpha-methyl-leucine; SITE 17: note = Lysine is chemically modified through conjugation of the epsilon-amino group of the Lysine side chain with (2-[2-(2-Amino-ethoxy)-ethoxy]-acetyl)-(gamma-Glu)-CO-(CH2) 18-CO2H; SITE 20: n) [Example 10] | 1.85 | – | 0.226 | – | 79.2 | 71.9 | 7.62 | – | 375 | 43 | 1640
YXQGTFTSDFSKXLDKKAQXAFIEYLLAGGPSSGAPPPSGE (synthetic construct; SITE 2: note = 2-Aminoisobutyric Acid; SITE 13: note = alpha-methyl-leucine; SITE 17: note = Lysine is chemically modified through conjugation of the epsilon-amino group of the Lysine side chain with (2-[2-(2-Amino-ethoxy)-ethoxy]-acetyl)-(gamma-Glu)-CO-(CH2) 18-CO2H; SITE 20: n) [Example 11] | 2.07 | – | 0.233 | – | 75.1 | 73.8 | 12.5 | – | 337 | 40.8 | 1700
YXQGTFTSDFSKXLDKKAQXAFIEYLLAGGPSSGAPPPSGG (synthetic construct; SITE 2: note = 2-Aminoisobutyric Acid; SITE 13: note = alpha-methyl-leucine; SITE 17: note = Lysine is chemically modified through conjugation of the epsilon-amino group of the Lysine side chain with (2-[2-(2-Amino-ethoxy)-ethoxy]-acetyl)-(gamma-Glu)-CO-(CH2) 18-CO2H; SITE 20: n) [Example 12] | 1.46 | – | 0.17 | – | 48.5 | 75.3 | 12.2 | – | 216 | 30.2 | 1490
YXQGTFTSDFSKXLDKKAQXAFIEYLLAGGPSSGAPPPSSG (synthetic construct; SITE 2: note = 2-Aminoisobutyric Acid; SITE 13: note = alpha-methyl-leucine; SITE 17: note = Lysine is chemically modified through conjugation of the epsilon-amino group of the Lysine side chain with (2-[2-(2-Amino-ethoxy)-ethoxy]-acetyl)-(gamma-Glu)-CO-(CH2) 18-CO2H; SITE 20: n) [Example 13] | 1.78 | – | 0.196 | – | 53.3 | 74.7 | 7.19 | – | 282 | 29.2 | 1670
YXQGTFTSDFSKXLDKKAQXAFIEYLLAGGPSSGAPPPGGE (synthetic construct; SITE 2: note = 2-Aminoisobutyric Acid; SITE 13: note = alpha-methyl-leucine; SITE 17: note = Lysine is chemically modified through conjugation of the epsilon-amino group of the Lysine side chain with (2-[2-(2-Amino-ethoxy)-ethoxy]-acetyl)-(gamma-Glu)-CO-(CH2) 18-CO2H; SITE 20: n) [Example 15] | 1.77 | – | 0.201 | – | 79 | 74.9 | 11.1 | – | 276 | 36.3 | 1980
YXQGTFTSDFSKXLDKKAQXAFIEYLLAGGPSSGAPPPGGS (synthetic construct; SITE 2: note = 2-Aminoisobutyric Acid; SITE 13: note = alpha-methyl-leucine; SITE 17: note = Lysine is chemically modified through conjugation of the epsilon-amino group of the Lysine side chain with (2-[2-(2-Amino-ethoxy)-ethoxy]-acetyl)-(gamma-Glu)-CO-(CH2) 18-CO2H; SITE 20: n) [Example 16] | 1.54 | – | 0.217 | – | 37.8 | 74.6 | 8.84 | – | 281 | 35.9 | 1660
YXQGTFTSDFSKXLDKKAQXAFIEYLLEGGPSSGAPPPGEG (synthetic construct; SITE 2: note = 2-Aminoisobutyric Acid; SITE 13: note = alpha-methyl-leucine; SITE 17: note = Lysine is chemically modified through conjugation of the epsilon-amino group of the Lysine side chain with (2-[2-(2-Amino-ethoxy)-ethoxy]-acetyl)2-(gamma-Glu)-CO-(CH2 )18-CO2H; SITE 20:) [Example 17] | 2.96 | – | 0.317 | – | 66.2 | 72.2 | 8.33 | – | 543 | 91.7 | 2040
YXQGTFTSDFSKXLDKKAQXAFIEYLLEGGPSSGAPPPGGS (synthetic construct; SITE 2: note = 2-Aminoisobutyric Acid; SITE 13: note = alpha-methyl-leucine; SITE 17: note = Lysine is chemically modified through conjugation of the epsilon-amino group of the Lysine side chain with (2-[2-(2-Amino-ethoxy)-ethoxy]-acetyl)-(gamma-Glu)-CO-(CH2) 18-CO2H; SITE 20: n) [Example 18] | 2.31 | – | 0.337 | – | 91.8 | 74.1 | 2.7 | – | 561 | 59.6 | 1210
Y[Aib]QGTFTSDFSK[αMeL]LDKK([AEEA-γGlu-C20 diacid])AQQAFIEYLLA[Aib]GPSSGEPPPSEG-NH2 [Example 19] | 3.96 | – | 0.228 | – | 52.4 | 72.6 | 2.35 | – | 1310 | 66.2 | 1010
YXQGTFTSDFSKXLDKKAQXAFIEWLLAGGPSSGEPPPSGE (synthetic construct; SITE 2: note = 2-Aminoisobutyric Acid; SITE 13: note = alpha-methyl-leucine; SITE 17: note = Lysine is chemically modified through conjugation of the epsilon-amino group of the Lysine side chain with (2-[2-(2-Amino-ethoxy)-ethoxy]-acetyl)-(gamma-Glu)-CO-(CH2) 18-CO2H; SITE 20: n) [Example 21] | 2.7 | – | 0.218 | – | 87.6 | 72.5 | 12.4 | – | 324 | 29.1 | 1510
YXQGTFTSDFSKXLDKKAQXAFIEYLLAGGPSSGEPPPSEG (Aib, αMeL; acyl on Lys; C-terminal amide; synthetic construct; SITE 2: note = 2-Aminoisobutyric Acid; SITE 13: note = alpha-methyl-leucine; SITE 17: note = Lysine is chemically modified through conjugation of the epsilon-amino group of the Lysine side chain with (2-[2-(2-Amino-ethoxy)-ethoxy]-acetyl)-(gamma-Glu)-CO-(CH2) 16-CO2H; SITE 20: n) [Example 22] | 2.94 | – | 0.246 | – | 41.9 | 64.7 | 5.42 | – | 592 | 81 | 532
YXQGTFTSDFSKXLDKKAQXAFIEYLLAGGPSSGEPPPSGE (synthetic construct; SITE 2: note = 2-Aminoisobutyric Acid; SITE 13: note = alpha-methyl-leucine; SITE 17: note = Lysine is chemically modified through conjugation of the epsilon-amino group of the Lysine side chain with (2-[2-(2-Amino-ethoxy)-ethoxy]-acetyl)-(gamma-Glu)-CO-(CH2) 16-CO2H; SITE 20: n) [Example 23] | 2.98 | – | 0.178 | – | 51.5 | 67.2 | 5.13 | – | 308 | 25.5 | 573
YXQGTFTSDFSKXLDKKAQXAFIEYLLAGAPSSGAPPPSEG (synthetic construct; SITE 2: note = 2-Aminoisobutyric Acid; SITE 13: note = alpha-methyl-leucine; SITE 17: note = Lysine is chemically modified through conjugation of the epsilon-amino group of the Lysine side chain with (2-[2-(2-Amino-ethoxy)-ethoxy]-acetyl)-(gamma-Glu)-CO-(CH2) 18-CO2H; SITE 20: n) [Example 24] | 3.09 | – | 0.308 | – | 79.9 | 71.9 | 9.66 | – | 447 | 102 | 1390
YXQGTFTSDFSKXLDKKAQXQFIEYLLAGGPSSGEPPPSEG (synthetic construct; SITE 2: note = 2-Aminoisobutyric Acid; SITE 13: note = alpha-methyl-leucine; SITE 17: note = Lysine is chemically modified through conjugation of the epsilon-amino group of the Lysine side chain with (2-[2-(2-Amino-ethoxy)-ethoxy]-acetyl)-(gamma-Glu)-CO-(CH2) 16-CO2H; SITE 20: n) [Example 26] | 3.44 | – | 0.2 | – | 96.1 | 75.6 | 4.82 | – | 623 | 35.4 | 980
YXQGTFTSDXSKXLDKKAQXAFIEYLLAGGPSSGEPPPSGE (synthetic construct; SITE 2: note = 2-Aminoisobutyric Acid; SITE 10: note = 3-(4-Pyridyl)-L-alanine; SITE 13: note = alpha-methyl-leucine; SITE 17: note = Lysine is chemically modified through conjugation of the epsilon-amino group of the Lysine side chain with (2-[2-(2-Amino-ethoxy)-ethoxy]-acetyl)) [Example 28] | 3.68 | – | 0.255 | – | 81.8 | 76.2 | 12.6 | – | 686 | 63.8 | 1550
